# Measured values: article PMC4818545
# Like-named read-outs stand apart in the source and are kept apart here.
# Columns and labels:
# [1] = target: recombinant (β15–66)2 fragment; test: ELISA
# [2] = target: recombinant (β15–66)2 fragment; test: ELISA; remark: listed apart in the source
# [3] = target: fibrin (β15-66)2 fragment 15-66 (Homo sapiens) (UniProt P02675); test: ELISA; details: cited from earlier work
# [4] = target: recombinant (β15–66)2 fragment; test: ELISA; remark: listed apart in the source
# VLDLR(1–4)HT (human) = VLDLR(1–4)HT (human) (UniProt P98155); test: SPR
# VLDLR(2–3)HT (human) = VLDLR(2–3)HT (human) (UniProt P98155); test: SPR
# VLDLR(2–4)HT (human) = VLDLR(2–4)HT (human) (UniProt P98155); test: SPR
# VLDLR(1–8)HT (human) = VLDLR(1–8)HT (human) (UniProt P98155); test: SPR
# UniProt P02675, sequence (P02675 15-66): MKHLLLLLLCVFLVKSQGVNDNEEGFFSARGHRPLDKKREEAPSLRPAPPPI
Kd [1] [nM],Kd [2] [nM],Substance,also measured
2.5,16.4,"soluble form of human VLDL receptor, sVLDLRHT (from UniProt P98155 28-797)",–
–,78,VLDLR(2–3)HT (from UniProt P98155 69-151) (domain or fragment),–
–,–,sVLDLR ECD (from UniProt P98155),Kd [3]: 5.7 nM
3.4,16.3,VLDLR(1–8)HT (from UniProt P98155 28-355) (domain or fragment),Kd [4]: 21 nM
–,–,recombinant (β15–66)2 fragment (domain or fragment),Kd (VLDLR(1–4)HT (human)): 3.7 nM; Kd (VLDLR(2–3)HT (human)): 9.5 nM; Kd (VLDLR(2–4)HT (human)): 4.6 nM; Kd (VLDLR(1–8)HT (human)): 3.1 nM
–,60,VLDLR(1–4)HT (from UniProt P98155 28-190) (domain or fragment),–
